Test results as given in patent US20210087270A1 (INNATE PHARMA, published 2021).

biological target: T1, human KIR3DL2 (CD158k), wild type, at the cell surface (human, UniProt P43630 22-455); experiment: fluoro-microscopy on HUT78 cells, 10 µg/ml, goat anti-mouse Alexa594
T1 construct: also called WTaKIR3DL2; un-mutated wild type KIR3DL2
Protocol: Internalization of antibodies 10F6, 2B12, 18C6, 9E10, 10G5, 13H1, 4B5, 5H1, 1E2, 1C3 and 20E9, as well as antibody AZ158 (an anti-domain 0 mAb as comparator) and other anti-D1 antibodies as disclosed in PCT applications WO2014/044686 and WO2014/044681 were assessed by fluoro-microscopy using the HUT78 SS cell line.
Hut-78 cells were incubated during 1H at 4° C. with 10 μg/ml of the different antibodies. After this incubation cells were either fixed (t=OH) or incubated for 2H at 37° C. Cells incubated for 2H were then fixed and stained. Antibodies were stained using goat anti-mouse antibodies coupled to Alexa594 (Invitrogen, A11032). […] Pictures were acquired using an Apotome device (Zeiss) and analyzed using the Axiovision software.

T1 sequence (P43630 22-455 E158D): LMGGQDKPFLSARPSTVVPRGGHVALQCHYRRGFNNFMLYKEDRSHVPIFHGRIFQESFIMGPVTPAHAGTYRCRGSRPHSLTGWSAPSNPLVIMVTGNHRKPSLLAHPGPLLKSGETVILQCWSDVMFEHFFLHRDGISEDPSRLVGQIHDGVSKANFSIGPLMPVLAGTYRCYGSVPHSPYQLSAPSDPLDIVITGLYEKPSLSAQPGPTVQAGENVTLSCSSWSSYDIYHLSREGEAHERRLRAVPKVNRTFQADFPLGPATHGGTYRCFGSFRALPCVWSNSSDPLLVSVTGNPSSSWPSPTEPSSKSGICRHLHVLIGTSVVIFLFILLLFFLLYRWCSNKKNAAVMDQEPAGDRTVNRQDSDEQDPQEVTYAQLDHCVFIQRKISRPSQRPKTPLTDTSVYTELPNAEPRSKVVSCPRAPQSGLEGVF

| Binder | binding result |
| --- | --- |
| antibody 1C3 (antibody, V domains shown) VH: QVQLQQSGAELARPGASVKLSCKASGYTFTSYWMQWVKQRPGQGLEWIGAIYPGDGDTRYTQKFKGKATLTADKSSSTAYMQLSSLASEDSAVYYCARRYDGYYHFDYWGQGTTLTVS VL: DIVMTQSPSSLAVTAGEKVTMSCKSSQSLLWSVNQKNYLSWYQQKQRQPPKLLIYGASIRESWVPDRFTGSGSGTDFTLTISNVHAEDLAVYYCQHNHGSFLPLTFGSGTKLEIK | binds |
| antibody 10F6 (antibody, V domains shown, Detected with goat anti-mouse antibody) VH: QIQLVQSGPELKKPGETVRISCKASGYTFTIAGMQWVQKMPGKGLKWIGWINTHSGVPKYAEDFKGRFAFSLETSANIAYLQISNLKNEDTATYFCARGGDEGVMDYWGQGTSVTVS VL: DIVMTQSHKFMSTSVGDRVSITCKASQDVSTAVAWYHQKPGQSPKLLIYWASTRHTGVPDRFSGSGSGTDYTLTISALQAEDLALYYCQQHYNTPWTFGGGTKLEIK | binds |
| antibody 13H1 (antibody, V domains shown) VH: EVQLQQSGPELVKPGASMKISCKASHYSFIGYTMNWVKQRHGKNLEWIGLINPYNGDTTYNQKFKGKASLTVDKSSSTAYMEILSLTSEDSAVYYCARENWGYPYAMDYWGQGTSVTVS VL: not shown | binds |
| antibody 20E9 (antibody, V domains shown) VH: QVQLQQSGAEVARPGASVKLSCKSSGFTFTTYWMQWVKQRPGQGLEWIGAIYPGDGDTRYTQKFKGKATLTADKSSITAYMQLSSLASEDSAVYYCARRGDYGNYGMDYWGQGTSVTVSS VL: DVLMTQTPLSLPVSLGDQASISCRSSQSIVHSNGNTYLEWYLQKPGQSPKLLIYKVSNHFSGVPDRFSGSGSGTDFTLKISRVEAEDLGVYYCFQGSHVPPTFGGGTKLEIK | binds |
| antibody 1E2 (antibody, V domains shown) VH: QVQLQQSGAELVRPGVSVKISCKGSGYTFTDYAMNWVKQSHAKSLEWIGVISTYYGDANYNQKFKGKATMTVDKSSSTAYMELARLTSEDSAIYYCALIYYDYDGSYWGQGTTLTVS VL: DVVMTQTPLSLPVSLGDQASISCRSSQSLVHSNGNTYLHWYLQKPGQSPKLLIYKVSNRFSGVPDRFSGSGSGTDFTLKISRVEAEDLGVYFCSQSTHVPPYTFGGGTKLEIK | binds |

biological target: T2, KIR3DL1 (CD158e1) (UniProt P43629 22-444, limits assumed); experiment: hybridoma screening (flow cytometry, incl. HEK-293T/KIR3DL1 Domain 0-eGFP)
T2 construct: also called closely related KIR3DL1
Protocol: Antibodies which bind KIR3DL2 but not closely related KIR3DL1 were generated by immunizing mice with recombinant KIR3DL2-Fc fusion protein, described in US patent publication number US-2015-0232556-A1. Supernatant (SN) of the growing hybridomas were tested by flow cytometry on Sezary Syndrome cell lines (HUT78, COU-L) and HEK-293T/KIR3DL2 Domain 0-eGFP. Potentially interesting hybridomas selected from the initial screening were cloned by limiting dilution techniques in 96-wells plates. The secondary screen involved selection of hybridomas of interest by testing supernatants of the subclones by flow cytometry on HUT78, COU-L, HEK-293T/KIR3DL1 Domain 0-eGFP and HEK-293T/KIR3DL2 Domain 0-eGFP. Positive subclones were injected into mice to produce ascitis and antibodies of interest were purified before being tested in a Biacore assay using rec KIR3DL2 chips, followed by various assays formats based on binding to human KIR3DL2-expressing cells.

T2 sequence (P43629 22-444 limits assumed): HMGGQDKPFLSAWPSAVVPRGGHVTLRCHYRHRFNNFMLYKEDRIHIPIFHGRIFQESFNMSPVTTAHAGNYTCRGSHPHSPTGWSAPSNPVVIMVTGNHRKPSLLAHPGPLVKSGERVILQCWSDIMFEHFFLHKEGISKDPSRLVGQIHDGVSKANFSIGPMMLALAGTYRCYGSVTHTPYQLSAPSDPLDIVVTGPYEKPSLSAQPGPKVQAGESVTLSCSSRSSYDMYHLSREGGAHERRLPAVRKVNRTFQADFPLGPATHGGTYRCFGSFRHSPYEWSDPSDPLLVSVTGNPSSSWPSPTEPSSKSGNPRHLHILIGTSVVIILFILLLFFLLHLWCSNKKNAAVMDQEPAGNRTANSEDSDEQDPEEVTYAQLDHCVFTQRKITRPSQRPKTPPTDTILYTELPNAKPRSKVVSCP

| Binder | binding result |
| --- | --- |
| antibody 10G5 (antibody, V domains shown) VH: QVQLQQSAAELARPGASVKMSCKASGYTFTSYTMHWVKQRPGQGLEWIGYINPSSGYTENNRKFKDKTTLTADKSSSTAYMQLSSLTSEDSAVYYCARLGKGLLPPFDYWGQGTTLTVSS VL: DIQMTQSPASLSVSVGETVTITCRASENIYSNLAWYQQKQGKSPQLLVYAATNLADGVPSRFSGSGSGTQYSLKINSLQSEDFGSYYCQHFWGTPYTFGGGTKLEIK | no binding |
